Results as given in the nanobody polyreactivity screen of Harvey et al. (2022).

Test: yeast display, Sf9 membrane polyspecificity reagent, FACS + sequencing; frameworks hold sequencing errors
Procedure, shortened: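 Genes from sorted yeast were amplified by colony PCR, read by MiSeq 2 × 250 sequencing and filtered on CDR length. These cells carried a synthetic nanobody library in Saccharomyces cerevisiae BJ5465 and were sorted by FACS into low and high (top ~1%) gates on anti-HA and streptavidin fluorescence. Polyreactivity is labelled according to the gate of origin.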

QVQLVESGGGLVQAGGSLRLSCAASGSTFYHYAMVWYRQAPGKERELVAAISSSGGRTYYADSVKGRFTISRDNAKNTVYLKMNSLKPEDTAVYYCAARAKTSGSIEDYWGQGTQVTVSS
polyreactivity (PSR sort gate): high polyreactivity

QVQLVESGGGLVQAGGSLRLSCAASGSTFYINALGGYRQAPGTERELVAAITWNSDSTYYADSVKGRFTISRDNAKNTVYLQMNSLKPEDTAVYYCNKDRIIWGRLYEEGDYWGQGTQVTVSS
polyreactivity (PSR sort gate): low polyreactivity

QVQLVESGGGLVQAGGSLRLSCAASGSTFYINTMGRYLQAPGKEREFVAAITWSGGSTYYADSVKGRFTISRDNAKNTVYLQMNSLKPEDTAVYYCAADLYVGDMDYWGQCTQVTVSS
polyreactivity (PSR sort gate): low polyreactivity

QVQLVESGGGLVQAGGSLRLSCAASGSTFYIYAMGWYRQAPGKERELVARISGSGGSTYYADSVKVRFTISRDNAKNTVYLQMNSLKPEDTAVYYCAVDPPYSDSLSRYGYWGQGTQVTVSS
polyreactivity (PSR sort gate): low polyreactivity

QVQLVESGGGLVQAGGSLRLSCAASGSTFYIYAMGWYRQAPGKERELVATISRGGSTNYADSVKGRFTISRDNAKNTVYLQMNSLKPEDTAVYYCAAEAAFTSYWWSVTYPYDYWGQGTQVTVSS
polyreactivity (PSR sort gate): high polyreactivity

QVQLVESGGGLVQAGGSLRLSCAASGSTFYIYVMGWYRQAPGKERELVATITWGGVSTYYADSVKGRFTISRDNAKNTVYLQMNSLKTEDTAVYYCATRGKSHGQQFNYWGQGTQVTVSS
polyreactivity (PSR sort gate): high polyreactivity

QVQLVESGGGLVQAGGSLRLSCAASGSTFYKYAMGGYRQAPGKERELVAAISTRGGSTYYADSVKGRFTISRDNAKNTVYLQMNSLKPEDTAVYYCAADGSGGHDDYWGQGTQVTVSS
polyreactivity (PSR sort gate): high polyreactivity

QVQLVESGGGLVQAGGSLRLSCAASGSTFYKYAMGWYRQAAGKERELVASISRSGGSTSYADSVKGRFTISRDNGKNTVYLQMYCLKPEDTAVYYCAATWRQHPGSMGYWGQGTQVTVSS
polyreactivity (PSR sort gate): high polyreactivity

QVQLVESGGGLVQAGGSLRLSCAASGSTFYKYAMGWYRQAPGKERELVAAISTRGGSTYYADSVKWRFTISRDNAKNTVYLQMNSLKPEDTAVFYCAADGRGGHDVYWGQGSQVTVSS
polyreactivity (PSR sort gate): high polyreactivity

QVQLVESGGGLVQAGGSLRLSCAASGSTFYKYAMGWYRQAPGKERELVASISRSGGSTSYADSVKGRFTISRDYAKNTVYLQMNSLKPEDTAVYYCAATWRQHPGSMGYWGQGTQVTVSS
polyreactivity (PSR sort gate): high polyreactivity

QVQLVESGGGLVQAGGSLRLSCAASGSTFYKYAMGWYRQAPGKERELVATINISGGSTSYADSVKGRFTISRDYAKNTVYLQMNSLKPEDTAVYYCAASLTRHGYYRRFDYWGQGTQVTVSS
polyreactivity (PSR sort gate): high polyreactivity

QVQLVESGGGLVQAGGSLRLSCAASGSTFYKYVMGWYRQAPGKERELVAAISWSGGSTYYADSVKGRFTISRDNAKNTVYLQMNSLKPEDPAVYYCAAETYAYLFHTYDYWGQGTQVTVSS
polyreactivity (PSR sort gate): low polyreactivity

QVQLVESGGGLVQAGGSLRLSCAASGSTFYLNVMGWYRQAPGKERELVAAISSSGGSTYYADSVKGRFTISRDNAKNTVYLQMNSLKPEDTAVYYCNKVSAFPHYSGYDYWGQGTQVTVSS
polyreactivity (PSR sort gate): low polyreactivity

QVQLVESGGGLVQAGGSLRLSCAASGSTFYLYAMGWYRQAPGKEREFVAAISWSGGRTYYADSVKGRFTISRDNAKNTVYLQMNSLKPEYTAVYYCAARRRYTWQYTRYDMGYWGQGTQVTVSS
polyreactivity (PSR sort gate): low polyreactivity

QVQLVESGGGLVQAGGSLRLSCAASGSTFYLYAMGWYRQAPGKERELVAAISRGGTTYYADSVKGRFTISRDNAKNTVYLKMNSLKPEDTAVYYCAARRPWWYGGGMDYWGQGTQVTVSS
polyreactivity (PSR sort gate): high polyreactivity

QVQLVESGGGLVQAGGSLRLSCAASGSTFYLYAMGWYRQAPGKERELVAAISYSDGSTYYADSVKGRFTISRDNAKNTVYLQMNSMKPEDTAVYYCAAQHYVRSSIPGFIYYYWGQGTQVNVSS
polyreactivity (PSR sort gate): high polyreactivity

QVQLVESGGGLVQAGGSLRLSCAASGSTFYLYAMGWYRQAPGKERELVAGITGSGGRTYYADSVKGRFTISRDNAKNTVYLQLNSLKPEDTAVYYCNKRRASWSPAGGTYNYWGQGSQVTVSS
polyreactivity (PSR sort gate): low polyreactivity

QVQLVESGGGLVQAGGSLRLSCAASGSTFYLYARGWFSQAPGKVRELGAAIRTSGGSTYYADSGKGRFTISRDTAKNTVYLQMNSLKPEDTAVYSCTAAWPYNSVEYWGQGTQVTVSS
polyreactivity (PSR sort gate): low polyreactivity

QVQLVESGGGLVQAGGSLRLSCAASGSTFYNNAMGWYRQAPGKEREFVAAIRYRGGSTYYADSVKGRFTISRDNAKNTVYLQMNSLKPEDTAVYYCAADQGVYRTYWVDYWGQGTQVTVSS
polyreactivity (PSR sort gate): high polyreactivity

QVQLVESGGGLVQAGGSLRLSCAASGSTFYNNAMGWYRQAPGKERELVATISASSTSTYYADSVKGRFTISRDNAKNTVYLQMNSLKPEDTAVYYCAKDYVHGSTYGYYWYGYDYWGQGTQVTVSS
polyreactivity (PSR sort gate): low polyreactivity

QVQLVESGGGLVQAGGSLRLSCAASGSTFYNYAMGWSRQAPGKERELVASITWNGGSTYYADSVKGRFTISRDNAKNTVYLQMNSLKPEDTAVYYCAADWTWTYPYDYWGQGTQVTVSS
polyreactivity (PSR sort gate): low polyreactivity

QVQLVESGGGLVQAGGSLRLSCAASGSTFYNYAMGWYRQAPGKERELVASITWNGGSTYYADSVKGRFTISRDNAKNTVYLQMNSLKPEDTAVYYCAADWTWTYPYDYWGQGTQVTVSS
polyreactivity (PSR sort gate): low polyreactivity

QVQLVESGGGLVQAGGSLRLSCAASGSTFYPNAMGWYRQAPGKERELVAAITDSVGTTNYADSVKGRFTISRDNAKNTVYLQINSLKPEDTAVYYCTAPIGGSYNTRRAAEYDYWGQGTQVTVSS
polyreactivity (PSR sort gate): low polyreactivity

QVQLVESGGGLVQAGGSLRLSCAASGSTFYPTYAMGWYRQAPGKERELVATITGSGGSTYYADSVKGRFTSSRDNAKNTVYLQMNSLKPEDTAVYYCAADRWYSRYTRYGYWGQGTQVTVSS
polyreactivity (PSR sort gate): low polyreactivity

QVQLVESGGGLVQAGGSLRLSCAASGSTFYPYAMGRYRQAPGKERELVAAISSGGSTSYADSVKGRFTISRDNAKNTVYLQLNSLKPEDTAVYYCNASSPGAVPVYDYDYWGQGTQVTVSS
polyreactivity (PSR sort gate): low polyreactivity

QVQLVESGGGLVQAGGSLRLSCAASGSTFYPYAMGWYRPAPGKERELVAAINWSGGTTYYADSVKGRFTISRDNAKNTVYLQMNSLKPVDTAVYYCAADGYPPGYGYWGQGTQVTVSS
polyreactivity (PSR sort gate): low polyreactivity

QVQLVESGGGLVQAGGSLRLSCAASGSTFYPYAMGWYRQAPGKEREFVAAIRSSGTSTYYADSVKGRFTISRDNAKNTVYLQMNSLKPEDTEVYYGAARVRGDSVSRTKPASIGGGSWGQGTQVTVSS
polyreactivity (PSR sort gate): high polyreactivity

QVQLVESGGGLVQAGGSLRLSCAASGSTFYQYAMGWYRQAPGKERELVAAITGSGTRTYYADSVKGRFTISRDNAKNTVYLQMNSLKPEDTAVYYCAAQKYYQGYNYWGQGTQVTVSS
polyreactivity (PSR sort gate): high polyreactivity

QVQLVESGGGLVQAGGSLRLSCAASGSTFYQYVMGWYRQAPGKESELVAAISSSGGSTYYADSVKGRFTISRDNAKNTVYLQMTSLKPEDTAVYYCAVDNYRGYGHDYYWGQGTQVTVSS
polyreactivity (PSR sort gate): low polyreactivity

QVQLVESGGGLVQAGGSLRLSCAASGSTFYRNAMAWYRQAPGKERELVAAISSTGGSTYYADSVKGRFTISRDNAKNTVYLQMNSLKPEDTAVYYCAVDPGLTKGFGYWGQGTQVTVSS
polyreactivity (PSR sort gate): low polyreactivity

QVQLVESGGGLVQAGGSLRLSCAASGSTFYRNAMGWYRQAPGKEREFVADITLGGGSTYYADSVKGRFTISRDNAKNTVYLQMNSRKPEDTAVYYCAVDYWQLNYDYWGQGTQVTVSS
polyreactivity (PSR sort gate): low polyreactivity

QVQLVESGGGLVQAGGSLRLSCAASGSTFYRYAMGWYRPAPGKERELVAAISSSGGSTYYADSVKGRFTISRDNAKNTVYLQMNSLKPEDTAVYYGNADVHSQYDYWGQGTQVTVSS
polyreactivity (PSR sort gate): low polyreactivity

QVQLVESGGGLVQAGGSLRLSCAASGSTFYRYAMGWYRQAPGKERELVAAISGSGGRTYYADSVKGRFTISRDNAKNTVYLQMNSLKPEDTAVYYCATRFGQRSDYWGQGTQVTVSS
polyreactivity (PSR sort gate): high polyreactivity

QVQLVESGGGLVQAGGSLRLSCAASGSTFYRYAMGWYRQAPGKERELVAAISQSGGRTYYADSVKGRFTISRDYAKNTVYLQMNSLKPEDTAVYYCAASWYYSLQRYGYWGQGTQVTVST
polyreactivity (PSR sort gate): high polyreactivity

QVQLVESGGGLVQAGGSLRLSCAASGSTFYRYAMGWYRQAPGKERELVAAISSSGGRTYYADSVKGRFTISRDNAKKTVYLQMNSLKPEDTAVYYCAAKNAAYARYYYWGQGTQVTVSS
polyreactivity (PSR sort gate): high polyreactivity

QVQLVESGGGLVQAGGSLRLSCAASGSTFYRYAMGWYRQAPGKERELVAAISSSGGSTYYADSVKGRFTISRDNAKNTVYLQMNSLKPEDTAVYYCNAALTPYDYDYWGQGTQVTVSS
polyreactivity (PSR sort gate): low polyreactivity

QVQLVESGGGLVQAGGSLRLSCAASGSTFYRYAMGWYRQAPGKERELVAAITARGGSTYYADSVKGRFTISRDNAKNTVYLQMNSLKPEDTAVYYCAADWLSTKNDYWGQGTQVTESS
polyreactivity (PSR sort gate): low polyreactivity

QVQLVESGGGLVQAGGSLRLSCAASGSTFYRYAMGWYRQAPGKERELVAAITRGGGRTYYADSVKGRFTISRDNAKNTVYLQMNSLKPEDTAVYYCNAASPYYDSWGQGTQVTVSS
polyreactivity (PSR sort gate): high polyreactivity

QVQLVESGGGLVQAGGSLRLSCAASGSTFYRYAMGWYRQAPGKERELVADITRSGDSTYYADSVKGRFTISRDNAKNTVYLQMNSLKPEDTAVYYCAREYPTIRYRLGYWGQGTQVTVSS
polyreactivity (PSR sort gate): low polyreactivity

QVQLVESGGGLVQAGGSLRLSCAASGSTFYRYAMGWYRQAPGKERELVASLTGSGGRTYYADSVKGRFTISRDNAKNTVYLQMNSLKPEDTAVYYCAARLYVRSVIGNAIVKYDYWGQGTQVTVSS
polyreactivity (PSR sort gate): high polyreactivity

QVQLVESGGGLVQAGGSLRLSCAASGSTFYRYTMRWYRQAPGKERELVASIRWTGGRTNYADSVKGRFTISRDNAKNTVYLQMNSLKPEDTAVYYCAAYLKYPYAASYGSWGQGTQVTVSS
polyreactivity (PSR sort gate): high polyreactivity

QVQLVESGGGLVQAGGSLRLSCAASGSTFYSNAMGWYRQAPGKERELVAAIDWGGGSTYYADSVKGRFTISRDNAKNTVYLQMNSLKPEDTAVYYCATDANGYYNYDYWGQGTQVTVSS
polyreactivity (PSR sort gate): low polyreactivity

QVQLVESGGGLVQAGGSLRLSCAASGSTFYSNAMGWYRQAPGKERELVAGIDTSDGSTNYADSVKGRFTISRDHAMNTVYLQMNSLKPEDTAVYYCAADYTQPGFVSYDYWGQGSQVTVSS
polyreactivity (PSR sort gate): low polyreactivity
